Source: patent US20240368263A1 (PROMETHEUS BIOSCIENCES, published 2024)
Residue numbers refer to the chain shown, from its start. Each block holds one binder with its values, some of them ahead of it.

Experiments:
[1] = target: T1, cynomolgus TL1A (endogenous, cynomolgus whole blood) (cynomolgus monkey, UniProt G7PRK8 1-251); assay: cell-based or functional assay
T1 sequence: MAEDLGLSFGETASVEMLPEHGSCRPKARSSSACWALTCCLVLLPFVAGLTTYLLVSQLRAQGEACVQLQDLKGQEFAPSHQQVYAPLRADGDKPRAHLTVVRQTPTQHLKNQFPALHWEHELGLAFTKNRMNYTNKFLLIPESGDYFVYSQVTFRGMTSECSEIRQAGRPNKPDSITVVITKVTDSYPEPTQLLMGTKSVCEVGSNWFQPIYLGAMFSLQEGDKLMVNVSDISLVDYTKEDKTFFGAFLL

[2] = target: T2, human TL1A (endogenous, human whole blood assay) (human, UniProt O95150 1-251, limits assumed); assay: cell-based or functional assay
T2 sequence (looked up): T1 sequence with C34R, V47L, L69F, D71A, L110F, V149I

[3] = target: T2, human TL1A (endogenous, human whole …); assay: cell-based or functional assay; remark: listed apart in the source
[4] = target: T2, human TL1A (endogenous, human whole …); assay: cell-based or functional assay; remark: listed apart in the source
[5] = target: T3, human TL1A (Fitzgerald, Prod. #30R-AT070) (human, UniProt O95150 72-251, limits assumed, biotinylated with EZ-Link Sulfo-NHS-LC-Biotin where used as soluble antigen); assay: capture lift hit at 200 pM b-TL1A, unmutated sequence
T3 construct: also called TNFSF15; biotinylated human TL1A
T3 sequence (looked up): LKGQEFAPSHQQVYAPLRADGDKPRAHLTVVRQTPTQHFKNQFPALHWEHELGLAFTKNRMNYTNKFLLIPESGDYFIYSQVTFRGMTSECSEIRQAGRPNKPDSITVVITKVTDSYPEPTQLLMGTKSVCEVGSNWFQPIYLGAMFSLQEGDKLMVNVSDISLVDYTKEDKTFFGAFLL

[6] = target: T3, human TL1A (Fitzgerald, Prod. …); assay: capture lift hit at 15 pM b-TL1A, unmutated sequence
[7] = target: LIGHT/TNFSF14 (R&D Systems, cat. no. 664-LI/CF) (UniProt O43557 74-240); assay: ELISA, antigen coated at 1 µg/ml, Fab titrated
[8] = target: TRAIL/TNFSF10 (R&D Systems, cat. no. 375-TL/CF) (UniProt P50591 114-281); assay: ELISA, antigen coated at 1 µg/ml, Fab titrated
[9] = target: T4, Fas/TNFSF6 (R&D Systems, cat. no. 126-FL/CF) (UniProt P48023 134-281); assay: ELISA, antigen coated at 1 µg/ml, Fab titrated
T4 sequence (looked up): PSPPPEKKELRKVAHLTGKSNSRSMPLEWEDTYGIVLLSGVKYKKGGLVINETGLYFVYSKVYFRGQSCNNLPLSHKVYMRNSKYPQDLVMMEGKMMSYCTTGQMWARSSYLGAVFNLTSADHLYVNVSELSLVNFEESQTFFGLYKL

[10] = target: T5, membrane-associated human TL1A on transfected HEK293 cells (human, UniProt O95150 1-251); assay: flow cytometry, HEK293 cells transfected with human TL1A
T5 construct: whole, on cells
T5 sequence (looked up): T1 sequence with C34R, V47L, L69F, D71A, L110F, V149I
Experimental: All the Fab variants were tested for binding to membrane-associated human TL1A. For these studies a HEK293 cell line that had been transfected with human TL1A was used. The 293 cells expressing membrane bound human TL1A were maintained in DMEM containing L-glutamine, glucose, sodium pyruvate, and phenol red (ThermoFisher cat #11995-065) plus 10% fetal bovine serum, 1X penicillin-streptomycin (Fisher cat #15140122) and 2 μg/ml puromycin (Gibco cat #A11138-03) in a 37° C. incubator with 5% CO2. Three days prior to the assay, a T-75 flask was seeded with 3×10⁶ cells so that the flask was 90-95% confluent on the day of the assay. The media was aspirated and the cell monolayer was gently washed with 5 ml PBS. Adherent cells were removed by repeatedly pipetting 10 ml ice cold 1% BSA/PBS against the monolayer. The cells were counted and 5×10⁵ were aliquoted for each sample to be analyzed. The cells were collected by centrifuging at 300× g at 4° C. for 5 minutes and the wash was discarded. The cells were resuspended in 100 μl Fab or IgG diluted in 1% BSA/PBS and placed on ice for 30 min. Next, the cells were washed with 1 ml 1% BSA/PBS and collected by centrifuging at 300× g at 4° C. for 5 min. The wash was discarded and 100 μl secondary goat F (ab′) 2 anti-human kappa FITC (Southern Biotech cat #2062-02) or goat F (ab′) 2 anti-human IgG PE (Southern Biotech cat #2043-09) conjugate, diluted 1:200 in BSA/PBS was added. Cells were placed on ice for 30 min. Finally, the cells were washed with 1 ml BSA/PBS, collected by centrifuging at 300× g at 4° C. for 5 min. The wash was removed and the cells were resuspended in 500 μl 1% BSA/PBS. One drop of Sytox AADvanced ReadyFlow Reagent (ThermoFisher cat #R37173) was added per sample and the samples were analyzed on the Attune NXT Flow Cytometer (ThermoFisher).

TRAIL/TNFSF10 (R&D Systems, cat. no. 375-TL/CF), sequence (P50591 114-281 limits assumed): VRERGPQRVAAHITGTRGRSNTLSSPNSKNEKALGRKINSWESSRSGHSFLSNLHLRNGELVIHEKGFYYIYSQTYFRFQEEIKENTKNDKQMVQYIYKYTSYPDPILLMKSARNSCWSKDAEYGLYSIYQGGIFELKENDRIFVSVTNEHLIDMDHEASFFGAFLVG
LIGHT/TNFSF14 (R&D Systems, cat. no. 664-LI/CF), sequence (O43557 74-240 limits assumed): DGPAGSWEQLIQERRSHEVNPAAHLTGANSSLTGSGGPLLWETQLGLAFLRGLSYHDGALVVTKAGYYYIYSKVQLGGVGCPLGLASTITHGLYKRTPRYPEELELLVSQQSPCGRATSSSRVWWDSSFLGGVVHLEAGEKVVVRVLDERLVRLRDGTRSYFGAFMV

Potency (IC50, nM), cynomolgus whole blood assay, mean [1]: 1.32 nM
Potency (IC50, nM), human whole blood assay, mean [2]: 0.59 nM
IC50, inhibition of IFN-γ production, human whole blood assay [3]: 390 pM
fold greater potency towards human TL1A than cynomolgus TL1A, whole blood assays [4]: ~2 fold
B1: clone 53, modified IgG1 / kappa (antibody, V domains shown)
VH: QVQLVQSGAEVKKPGASVKVSCKASGFDIQDTYMHWVRQAPGQGLEWMGRIEPASGHLKYDPKFQERVTMTRDTSTSTVYMELSSLRSEDTAVYYCARSGGLPDKWGQGTTVTVSS
VL: EIVLTQSPGTLSLSPGERATLSCRASSSVSYMYWYQQKPGQAPRLLIYATSNLASGIPDRFSGSGSGTDFTLTISRLEPEDFAVYYCQQWEGNPRTFGGGTKLEIKR

binding result [5]: binds
B2: L8 (CDR graft) Fab (Fab, V domains shown)
VH: B1 VH with E52D, L58T, E66V, K105V
VL: EIVLTQSPGTLSLSPGERATLSCRASSSVSYMYWYQQKPGQAPRLLIYATSNLASGIPDRFSGSGSGTDFTLTISRLEPEDFAVYYCQQWSGNPRTFGGGTKLEIK
notes: Fab; also called CDR graft clone L8; CDR-grafted variant

binding result [6]: binds
binding result [7]: no binding
binding result [8]: no binding
binding result [9]: no binding
binding result [10]: binds
B3: Clone L8mod Fab (Fab, V domains shown)
VH: QVQLVQSGAEVKKPGASVKVSCKASGFDIQDTYMHWVRQAPGQGLEWMGRIDPASGHTKYDPKFQGRATITTDTSASTAYLQLSSLRSEDTAVYYCARSGGLPDVWGQGTTVTVSS
VL: B2 VL
notes: Fab
